Test results from patent US20190225703A1.

Molecular target: cynomolgus CD73 expressed at the cell surface (cynomolgus)
Assay: flow cytometry titration on cynomolgus-CD73-expressing cell line

- EC50: 1.15 µg/mL
- fold higher concentration (EC50) than 7H10: 4 fold
Substance: antibody AD2 (Biolegend Corp, product ref. 344004)
